# In FireProtDB (doi:10.1021/acs.biochem.7b00833):
# Conditions: Bacillus subtilis (strain 168); pH 7; 25 °C; Urea; CD; Sodium Phosphate Buffer; whole UniProt chain shown
protein,measurement,value
"SCO1 protein homolog wild type, P54178 (protein) MKVIKGLTAGLIFLFLCACGGQQIKDPLNYEVEPFTFQNQDGKNVSLESLKGEVWLADFIFTNCETICPPMTAHMTDLQKKLKAENIDVRIISFSVDPENDKPKQLKKFAANYPLSFDNWDFLTGYSQSEIEEFALKSFKAIVKKPEGEDQVIHQSSFYLVGPDGKVLKDYNGVENTPYDDIISDVKSASTLK",denaturant m value,3.51 kcal/mol/M
same,denaturant midpoint (higher = more stable),2.91 M
same,unfolding free energy,9.93 kcal/mol
